Source: the supplement of paper PMC11780869

System: Bacillus subtilis
Test: cleaved RNA product abundance (RNA/gDNA barcode ratio) relative to median wild-type variant (ratio to wild type); higher = more accumulation of the downstream cleavage product
Settings: cleavage site: cggR-gapA (positions -7 to +36 mutated)
Procedure, shortened: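 The B. subtilis chromosome carried reporter mRNAs, truncated aprE or tetM, containing barcoded RNase Y cleavage-site windows mutagenized using oligos with a 9% error rate. After growth in LB at 37°C from OD600 0.0003 to 0.3, cleaved RNA was gel-selected, reverse transcribed and barcode-sequenced next to genomic DNA barcodes, with UMI collapsing. Each construct's RNA:gDNA barcode ratio was scaled to the median construct with the unmutated site. That scaled ratio is reported as cleaved product abundance.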

[1] = experiment (reporter, strain, medium): exp 2b: truncated aprE reporter, strain BJT200
[2] = experiment (reporter, strain, medium): exp 4a: truncated aprE reporter, strain BJT201 with 2% xylose (RNase J1 expressed)
[3] = experiment (reporter, strain, medium): exp 6: tetM reporter, strain 168

Row | Sequence | cleaved RNA product abundance [1] | cleaved RNA product abundance [2] | cleaved RNA product abundance [3]
1 | ACAGACGAAGGAGCCGCAAAGAAGTTATTAACGGATGAATAATCCCTCAATATAAATATCTCTCACTTATTTAAA | 0.133 | 0.177 | 0.195
2 | ACAGACGAAGGAGCCGCAAAGAAGTTATTAACGGATGAATAATCCCTCAATATAAATCTCTCTCACTTATTTAAA | 0.108 | – | –
3 | ACAGACGAAGGAGCCGCAAAGAAGTTATTAACGGATGAATAATCCCTCAATATAAATGTCTCTCACTTATTTAAA | – | 0.0543 | –
4 | ACAGACGAAGGAGCCGCAAAGAAGTTATTAACGGATGAATAATCCCTCAATATACATATCTCTCACTTATTTAAA | – | 0.231 | –
5 | ACAGACGAAGGAGCCGCAAAGAAGTTATTAACGGATGAATAATCCCTCAATATAGATATCTCTCACTTATTTAAA | – | 0.158 | –
6 | ACAGACGAAGGAGCCGCAAAGAAGTTATTAACGGATGAATAATCCCTCAATATATATATCTCTCACTTATTTAAA | 0.158 | 0.152 | –
7 | ACAGACGAAGGAGCCGCAAAGAAGTTATTAACGGATGAATAATCCCTCAATATTAATATCTCTCACTTATTTAAA | 0.0877 | 0.0699 | –
8 | ACAGACGAAGGAGCCGCAAAGAAGTTATTAACGGATGAATAATCCCTCAATCTAAATATCTCTCACTTATTTAAA | – | 0.102 | –
9 | ACAGACGAAGGAGCCGCAAAGAAGTTATTAACGGATGAATAATCCCTCATTATAAATATCTCTCACTTATTTAAA | 0.128 | 0.141 | –
10 | ACAGACGAAGGAGCCGCAAAGAAGTTATTAACGGATGAATAATCCCTCCATATAAATATCTCTCACTTATTTAAA | – | 0.129 | –
11 | ACAGACGAAGGAGCCGCAAAGAAGTTATTAACGGATGAATAATCCCTCTATATAAATATCTCTCACTTATTTAAA | – | 0.133 | –
12 | ACAGACGAAGGAGCCGCAAAGAAGTTATTAACGGATGAATAATCCCTGAATATAAATATCTCTCACTTATTTAAA | – | 0.107 | –
13 | ACAGACGAAGGAGCCGCAAAGAAGTTATTAACGGATGAATAATCCCTTAATATAAATATCTCTCACTTATTTAAA | 0.98 | 0.671 | –
14 | ACAGACGAAGGAGCCGCAAAGAAGTTATTAACGGATGAATAATCCTTCAATATAAATATCTCTCACTTATTTAAA | – | 0.223 | –
15 | ACAGACGAAGGAGCCGCAAAGAAGTTATTAACGGATGAATAATCTCTCAATATAAATATCTCTCACTTATTTAAA | 0.0813 | 0.183 | –
16 | ACAGACGAAGGAGCCGCAAAGAAGTTATTAACGGATGAATAATTCCTCAATATAAATATCTCTCACTTATTTAAA | – | 0.152 | –
17 | ACAGACGAAGGAGCCGCAAAGAAGTTATTAACGGATGAATACTCCCTCAATATAAATATCTCTCACTTATTTAAA | – | 0.133 | –
18 | ACAGACGAAGGAGCCGCAAAGAAGTTATTAACGGATGAATAGTCCCTCAATATAAATATCTCTCACTTATTTAAA | – | 0.174 | –
19 | ACAGACGAAGGAGCCGCAAAGAAGTTATTAACGGATGAATATTCCCTCAATATAAATATCTCTCACTTATTTAAA | – | 0.138 | –
20 | ACAGACGAAGGAGCCGCAAAGAAGTTATTAACGGATGAATTATCCCTCAATATAAATATCTCTCACTTATTTAAA | 0.12 | 0.179 | –
21 | ACAGACGAAGGAGCCGCAAAGAAGTTATTAACGGATGGATAATCCCTCAATATAAATATCTCTCACTTATTTAAA | – | 0.152 | –
22 | ACAGACGAAGGAGCCGCAAAGAAGTTATTAACGGATGTATAATCCCTCAATATAAATATCTCTCACTTATTTAAA | 0.124 | 0.147 | –
23 | ACAGACGAAGGAGCCGCAAAGAAGTTATTAACGGATTAATAATCCCTCAATATAAATATCTCTCACTTATTTAAA | 0.121 | 0.141 | –
24 | ACAGACGAAGGAGCCGCAAAGAAGTTATTAACGGCTGAATAATCCCTCAATATAAATATCTCTCACTTATTTAAA | 0.0646 | 0.0788 | –
25 | ACAGACGAAGGAGCCGCAAAGAAGTTATTAACGGTTGAATAATCCCTCAATATAAATATCTCTCACTTATTTAAA | 0.0654 | 0.113 | –

Row | Sequence | cleaved RNA product abundance [1] | cleaved RNA product abundance [2] | cleaved RNA product abundance [3]
26 | ACAGACGAAGGAGCCGCAAAGAAGTTATTAACGTATGAATAATCCCTCAATATAAATATCTCTCACTTATTTAAA | 0.098 | 0.0853 | –
27 | ACAGACGAAGGAGCCGCAAAGAAGTTATTAACTGATGAATAATCCCTCAATATAAATATCTCTCACTTATTTAAA | 0.0892 | 0.118 | –
28 | ACAGACGAAGGAGCCGCAAAGAAGTTATTAAGAAATGAATAATCCCTCAATATAAATATCTCTCACTTATTTAAA | 0.0992 | 0.1 | –
29 | ACAGACGAAGGAGCCGCAAAGAAGTTATTAAGACATGAATAATCCCTCAATATAAATATCTCTCACTTATTTAAA | 0.111 | 0.132 | –
30 | ACAGACGAAGGAGCCGCAAAGAAGTTATTAAGAGAAGAATAAACCCTCAATATAAATATCTCTCACTTATTTAAA | – | 0.0499 | –
31 | ACAGACGAAGGAGCCGCAAAGAAGTTATTAAGAGAAGAATAATCCCTCAATATAAATATCTCTCACTTATTTAAA | 0.0791 | 0.101 | 0.107
32 | ACAGACGAAGGAGCCGCAAAGAAGTTATTAAGAGACGAATAATCCCTCAATATAAATATCTCTCACTTATTTAAA | 0.0781 | 0.0728 | –
33 | ACAGACGAAGGAGCCGCAAAGAAGTTATTAAGAGAGGAATAATCCCTCAATATAAATATCTCTCACTTATTTAAA | – | 0.199 | –
34 | ACAGACGAAGGAGCCGCAAAGAAGTTATTAAGAGATAAAAAATCCCTCAATATAAATATCTCTCACTTATTTAAA | – | 0.139 | –
35 | ACAGACGAAGGAGCCGCAAAGAAGTTATTAAGAGATAAATAATCCCTCAATATAAATATCTCTCACTTATTTAAA | 0.0926 | 0.0932 | –
36 | ACAGACGAAGGAGCCGCAAAGAAGTTATTAAGAGATAAATAATTCCTCAATATAAATATCTCTCACTTATTTAAA | 0.102 | – | –
37 | ACAGACGAAGGAGCCGCAAAGAAGTTATTAAGAGATCAATAATCCCTCAATATAAATATCTCTCACTTATTTAAA | 0.0924 | 0.0785 | –
38 | ACAGACGAAGGAGCCGCAAAGAAGTTATTAAGAGATGAAAAATACCTCAATATAAATATCTCTCACTTATTTAAA | – | 0.146 | –
39 | ACAGACGAAGGAGCCGCAAAGAAGTTATTAAGAGATGAAAAATCCCTCAATATAAATATCTCTCACTTATTTAAA | 0.119 | 0.18 | –
40 | ACAGACGAAGGAGCCGCAAAGAAGTTATTAAGAGATGAACAATCCCTCAATATAAATATCTCTCACTTATTTAAA | 0.0784 | 0.205 | –
41 | ACAGACGAAGGAGCCGCAAAGAAGTTATTAAGAGATGAATAAACCCTCAATATAAATATCTCTCACTTATTTAAA | 0.148 | 0.0846 | 0.115
42 | ACAGACGAAGGAGCCGCAAAGAAGTTATTAAGAGATGAATAACCCCTCAATATAAATATCTCTCACTTATTTAAA | – | 0.147 | –
43 | ACAGACGAAGGAGCCGCAAAGAAGTTATTAAGAGATGAATAAGCCCTCAATATAAATATCTCTCACTTATTTAAA | 0.1 | 0.0929 | –
44 | ACAGACGAAGGAGCCGCAAAGAAGTTATTAAGAGATGAATAATACCTCAATATAAATATCTCTCACTTATTTAAA | 0.106 | 0.109 | –
45 | ACAGACGAAGGAGCCGCAAAGAAGTTATTAAGAGATGAATAATACCTCAATATATATATCTCTCACTTATTTAAA | – | 0.174 | –
46 | ACAGACGAAGGAGCCGCAAAGAAGTTATTAAGAGATGAATAATACCTCAATTTAAATATCTCTCACTTATTTAAA | – | 0.0323 | –
47 | ACAGACGAAGGAGCCGCAAAGAAGTTATTAAGAGATGAATAATCACTCAATATAAATATCTCTCACTTATTTAAA | 0.0955 | 0.127 | –
48 | ACAGACGAAGGAGCCGCAAAGAAGTTATTAAGAGATGAATAATCCATCAATATAAATATCTCTCACTTATTTAAA | 0.142 | 0.19 | –
49 | ACAGACGAAGGAGCCGCAAAGAAGTTATTAAGAGATGAATAATCCCACAATATAAATATCTCTCACTTATTTAAA | 0.0945 | 0.1 | –
50 | ACAGACGAAGGAGCCGCAAAGAAGTTATTAAGAGATGAATAATCCCGCAATATAAATATCTCTCACTTATTTAAA | – | 0.154 | –
